According to US20240358805A1 (BRIGHAM AND WOMEN S HOSPITAL, published 2024):

T1: NETL-1 cyclized synthetic peptide immunogen (cyclized on resin through the cysteines C4 and C27; N-terminal cysteine used for conjugation to maleimide-activated plates)
T1 construct: Aβ residues 9-18, then Pro-Asn, then the same ten residues backwards; also called cyclized peptide; the immunogen
T1 peptide: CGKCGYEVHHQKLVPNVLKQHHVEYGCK

T2: peptide mimetic 11
T2 construct: As for peptide mimetic 1; also called peptide 11
T2 peptide: NMYEWNHKDPNM

T3: peptide mimetic 8
T3 construct: As for peptide mimetic 1; also called peptide 8
T3 peptide: SYELHHKPLHAQ

T4: peptide mimetic 13
T4 construct: As for peptide mimetic 1; also called peptide 13
T4 peptide: QVYEVHHRGYTD

T5: peptide mimetic 10
T5 construct: As for peptide mimetic 1; also called peptide 10
T5 peptide: EMAPVASANLPP

T6: peptide mimetic 7
T6 construct: As for peptide mimetic 1; also called peptide 7
T6 peptide: GWYEIHHPSQRA

T7: peptide mimetic 5
T7 construct: As for peptide mimetic 1; also called peptide 5
T7 peptide: DSVVPSYEVHHK

T8: peptide mimetic 6
T8 construct: As for peptide mimetic 1; also called peptide 6
T8 peptide: TPNNTTSHRYPD

T9: peptide mimetic 3
T9 construct: As for peptide mimetic 1; also called peptide 3
T9 peptide: SPPTYEIHHFSP

T10: peptide mimetic 2
T10 construct: As for peptide mimetic 1; also called peptide 2
T10 peptide: NLHQYPTAMQAR

T11: peptide mimetic 4
T11 construct: As for peptide mimetic 1; also called peptide 4
T11 peptide: YQIHHNTQKRGG

T12: peptide mimetic 12
T12 construct: As for peptide mimetic 1; also called peptide 12
T12 peptide: SPSHMYPSSLIQ

T13: peptide mimetic 1
T13 construct: also called peptide 1
T13 peptide: QIYEVHHRGYTD

T14: peptide mimetic 9
T14 construct: As for peptide mimetic 1; also called peptide 9
T14 peptide: GPHTYPPQIALT

B1: monoclonal antibody 71A1 (antibody, V domains shown)
VH: EVQLQESGAELVRPGVSVKLSCKTSDYTFTSYWLHWFKQRPEQGLERIGEIDPSNGDADYSEKFKSKATLTVDKSSTTAYMQLASLTSEDSAVYYCAREAYGHYFDYWGQGTTLTVSS
VL: DVVMTQTPLSLPVSLGDQASISCRSSQSLEHSNGNTYLHWYLQKPGQSPKLLIYKLSNRFSGVPDRFSGSGSGTDFTLKISRVEAEDLGVYFCSQSTHVPYTFGGGTKLEIK
notes: Biotinylated when used as capture on streptavidin beads, resin or plates; also called Mab 71A1; mab 71 A1
B2: monoclonal antibody 1G5 (antibody, V domains shown)
VH: QVQLQQPGAELVRPGVSVKLSCKTSDYTFTSYWLHWFKQRPEQGLERIGEIDPSNGDADYSEKFKSKATLTVDKSSTTAYMQLASLTSEDSAVYYCAREAYGHYFDYWGQGTTLTVSS
VL: DVVMTQTPLSLPVSLGDQASISCRSSQSLEHSNGNTYLHWYLQKPGQSPKLLIYKLSNRFSGVPDRFSGSGSGTDFTLKISRVEAEDLGVYFCSQSTHVPYTFGGGTKLEIK
notes: Biotinylated when used as capture; also called Mab 1G5; isolate 1g

Legend:
[1] = molecular target: T1, NETL-1 cyclized synthetic peptide …; assay: indirect ELISA, peptide on maleimide-activated plate
Text: (§1) The rationale behind the NETL-1 immunogen was that a more focused epitope formed by a cyclized peptide may restrict the response to a dimer structure derived from the chosen 10aa sequence with minimal or no induction of responses to the monomer 10aa peptide sequence found within full length Aβ40. Both responses were observed. We can account for this, in part, by the fact that there may always be a minimal epitope available for recognition that is cross-reactive with the monomer sequence no matter how small the peptide structure. Several monoclonal antibodies specific for both NETL-1 and NETL-2 were isolated. Two isolates, 7a and 1g stood out that bound to NETL-1 but not to NETL-2 or Aβ40. These isolates were sub-cloned for further characterization. Two isolated subclones, Mab 71A1 and 1G5 were chosen, grown in tissue culture and purified for confirmation of specificity and for future studies. Both 71A1 and 1G5 monoclonal antibodies bound to the cyclized peptide, NETL-1 and not to control wells, Aβ40 monomer peptide or control peptide NETL-2 (FIG. 2). FIG. 2 is a standard, indirect enzyme linked immunosorbent assay (ELISA) with the purified monoclonal antibodies assayed for binding to Aβ40, NETL 1 or NETL 2 peptides conjugated to malemide-activated (SH-reactive) micro titer plates. After one hour incubation, the wells were washed and then 100 ul of a secondary, Horseradish peroxidase (HRPO)-conjugated goat anti-mouse antibody was added and the plates, incubated for an additional hour before addition of TMB (3,3′,5,5′-Tetramethylbenzidine) substrate. Absorbance was measured in a spectrophotometer at 650 nm.

[2] = molecular target: T15, full length Aβ40 with a C-terminal cysteine (conjugated to maleimide-activated plate through the added cysteine); assay: as above
T15 construct: also called Aβ40 monomer peptide
Text: as §1

[3] = molecular target: T2, peptide mimetic 11; assay: indirect ELISA, peptide at 10 µg/mL on maleimide-activated plate, absorbance at 650 nm
Procedure: (§2) A standard, indirect enzyme linked immunosorbent assay (ELISA) with purified monoclonal antibody 71A1 was used to assay for binding to peptide mimetics 1-13 (sequences in FIG. 13) conjugated to maleimide-activated micro titer plates at 10 μg/mL in 0.1M Sodium bicarbonate buffer pH10 and blocked with PBS and 2% BSA. After one hour incubation, the wells were washed and then 100 ul of a secondary, Horseradish peroxidase (HRPO)-conjugated goat anti-mouse antibody was added and the plates, incubated for an additional hour before addition of TMB (3,3′,5,5′-Tetramethylbenzidine) substrate. Absorbance was measured in a spectrophotometer at 650 nm.

[4] = molecular target: T3, peptide mimetic 8; assay: as above
Procedure: as §2

[5] = molecular target: T4, peptide mimetic 13; assay: as above
Procedure: as §2

[6] = molecular target: T16, S26C Aβ40 reduced by DTT to its monomeric form; assay: 71A1 capture / 3D6 detector sandwich immunoassay, S26C Aβ40 dimer native or reduced by DTT
T16 construct: The dimer of m16 after reduction with DTT; also called reduced monomeric counterpart; monomeric Aβ

[7] = molecular target: T17, Aβ / Aβ oligomers in human CSF (human, UniProt P05067 672-713); assay: 71A1 capture / 3D6 detector sandwich immunoassay, sample with or without 8M GnCl
T17 construct: Natural mixture; also called CSF Aβ; CSF Aβ oligomers
T17 sequence (P05067 672-713): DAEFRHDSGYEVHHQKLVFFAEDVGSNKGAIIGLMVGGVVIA

[8] = molecular target: T18, Aβ oligomers (oAβ) in human plasma (human, UniProt P05067 672-713); assay: as above
T18 construct: Natural mixture; also called plasma oAβ; 71A1-positive oligomers in plasma
T18 sequence (P05067 672-713): as above

[9] = molecular target: T19, soluble Aβ / Aβ oligomers (oAβ) of human AD brain extracts (human, UniProt P05067 672-713); assay: as above
T19 construct: Natural mixture; also called Aβ from human brain soaking extract; AD brain soaking extract oAβ
T19 sequence (P05067 672-713): as above

[10] = molecular target: T5, peptide mimetic 10; assay: phage display panning (Ph.D.-12 library) on immobilized 71A1
Text: (§3) A New England Biolabs (NEB) Ph.D.-12™ Phage Display Peptide Library Kit (instructions attached) was used to isolate amino acid residue peptide ligands (referred to herein as peptide mimetics) that bound to immobilized Mab 71A1. The New England Biolabs Ph.D.-12™ Phage Display Peptide Library Kit is a combinatorial library of random, 12 amino acid peptides (12-mers) fused to a minor coat protein (pIII) of the M13 bacteriophage. The peptide was expressed as a fusion with a coat protein that produces a display of the fused protein on the surface of the bacteriophage. The library consists of 2.7×109 electroporated sequences, amplified once to yield approximately 55 copies of each sequence in 10 μl of the supplied phage.
(§4) Immobilized 71A1 antibody was used to isolate the 12 amino acid peptides, shown in FIG. 13, that bound to the variable region. Thermo Scientific™ AminoLink Plus Coupling Resin was used to immobilize Mab 71A1. Negative control particles were made using monoclonal antibody 3C7 with specificity for an irrelevant peptide sequence. The Thermo Scientific™ AminoLink Plus Coupling Resin Protocol is provided that was used to produce the 71A1 particles panned with the NEB library. Briefly, 2 mL aminolink particle slurry was washed twice with 10 mL, 0.1 M sodium bicarbonate buffer pH 10 in a 15 mL conical tube by centrifugation for 10 minutes at 2000×g. 10 mgs of 71A1 antibody in this binding buffer was then added to the particles transferred to a 2 mL eppendorph tube and rotated at room temperature for 2 hours. The slurry was then added to a Millipore, Ultrafree-MC centrifugal filter unit and the resin washed 3× in 2 mL, 0.1M sodium phosphate, 0.15M NaCl, pH 7.2 binding buffer. Spun particles were then mixed with 2 mL pH 7.2 buffer and 40 μl of 50 mM Sodium Cyanoborohydride Solution and rotated for 4 hours. The aminoLink gel contains aldehyde functional groups that spontaneously react with primary amines on the antibody. The Schiff base bonds that form are then reduced to stable secondary amine bonds in the presence of the mild reducing agent, sodium cyanoborohydride. Particles were then washed twice with 2 mL 1M Tris HCL, pH 7.4, resuspended in 2 mL of this same buffer and 40 μl Sodium cyanoborohydride to block unbound sites on the particles, and rotated for 30 minutes. Particles washed 5 times with 1M sodium chloride were suspended in 1 mL PBS.

[11] = molecular target: T6, peptide mimetic 7; assay: as above
Text: as §3, §4

[12] = molecular target: T7, peptide mimetic 5; assay: as above
Text: as §3, §4

[13] = molecular target: T8, peptide mimetic 6; assay: as above
Text: as §3, §4

[14] = molecular target: T9, peptide mimetic 3; assay: as above
Text: as §3, §4

[15] = molecular target: T10, peptide mimetic 2; assay: as above
Text: as §3, §4

[16] = molecular target: T11, peptide mimetic 4; assay: as above
Text: as §3, §4

[17] = molecular target: T12, peptide mimetic 12; assay: as above
Text: as §3, §4

[18] = molecular target: T13, peptide mimetic 1; assay: as above
Text: as §3, §4

[19] = molecular target: T14, peptide mimetic 9; assay: as above
Text: as §3, §4

Row | Binder | binding result [1] | binding result [2] | binding result [3] | binding result [4] | binding result [5] | fold less binding than to higher order Aβ (non-reduced S26C dimer) [6] [fold] | decrease of 71A1/3D6 signal after 8M GnCl denaturation [7] [%] | decrease of 71A1/3D6 signal after 8M GnCl denaturation [8] [%] | decrease of 71A1/3D6 signal after 8M GnCl denaturation [9] [%] | binding result [10] | binding result [11] | binding result [12] | binding result [13] | binding result [14] | binding result [15] | binding result [16] | binding result [17] | binding result [18] | binding result [19]
1 | B1 | binds | no binding | binds | binds | binds | > 100 | > 99 | > 84 | > 70 | binds | binds | binds | binds | binds | binds | binds | binds | binds | binds
2 | B2 | binds | no binding |  |  |  |  |  |  |  |  |  |  |  |  |  |  |  |  | 
